In article PMC6147784, “Molecular mechanism of the Escherichia coli AhpC in the function of a chaperone under heat-shock conditions” (Scientific Reports, 2018):

B1: Escherichia coli alkyl hydroperoxide reductase subunit C (EcAhpC), His-tagged recombinant wild type (protein)
chain: MSLINTKIKPFKNQAFKNGEFIEITEKDTEGRWSVFFFYPADFTFVCPTELGDVADHYEELQKLGVDVYAVSTDTHFTHKAWHSSSETIAKIKYAMIGDPTGALTRNFDNMREDEGLADRATFVVDPQGIIQAIEVTAEGIGRDASDLLRKIKAAQYVASHPGEVCPAKWKEGEATLAPSLDLVGKI
B2: Escherichia coli alkyl hydroperoxide reductase subunit C (EcAhpC), His-tagged recombinant wild type (enzyme, UniProt P0AE08 1-187, looked up)
chain: B1 chain
modifications: disulfide bonded (referred as oxidized form) as purified; reduced with DTT (kept with TCEP or DTT) in the assays marked as reduced
notes: Alkyl hydroperoxide reductase subunit C (AhpC) of Escherichia coli, the entire enzyme; the C-terminal extension is printed as aa 173-187; The same construct was used as the oxidized (intermolecular disulphide) and as the reduced form; the assay's format tells which; also called WT EcAhpC; oxidized EcAhpC; source: E. coli, purified (Ni2+-NTA, gel filtration on Superdex 75)

Key:
P0AE08 [1] = assay: SEC; 10 µM oxidized EcAhpC incubated at 48 °C for 60 min in 50 mM phosphate pH 7.0, cooled to room temperature, centrifuged; Superdex 200 10/300 GL in 50 mM Tris pH 7; dimers to HMW oligomers
P0AE08 [2] = assay: SEC; 10 µM protein (oxidized form) incubated at 53 °C for 60 min in 50 mM phosphate pH 7.0, cooled to room temperature, centrifuged; Superdex 200 10/300 GL in 50 mM Tris pH 7; dimers to HMW oligomers
P0AE08 [3] = assay: SEC; 10 µM oxidized EcAhpC incubated at 50 °C for 60 min in 50 mM phosphate pH 7.0, cooled to room temperature, centrifuged; Superdex 200 10/300 GL in 50 mM Tris pH 7; dimers to HMW oligomers
P0AE08 [4] = assay: SEC; 10 µM reduced EcAhpC (pre-reduced with 20 mM DTT, desalted) incubated at 53 °C for 60 min in 50 mM phosphate pH 7.0 with 1 mM TCEP, centrifuged; Superdex 200 10/300 GL; to HMW oligomers
[5] = molecular target: the molecule itself; assay: dynamic light scattering; 1 mg/ml (50 µM) reduced EcAhpC (5 mM DTT) in 50 mM phosphate pH 7.0, equilibrated 10 min at 25 °C
[6] = molecular target: the molecule itself; assay: SEC; 10 µM protein (oxidized form) incubated at 25 °C for 60 min in 50 mM phosphate pH 7.0, centrifuged; Superdex 200 10/300 GL in 50 mM Tris pH 7 at room temperature; mass estimated from standards

Row | Protein | peak ratio (8.0 ml HMW peak to 15.5 ml dimer peak) (P0AE08 [1]) | peak ratio (8.0 ml HMW peak to 15.5 ml dimer peak) (P0AE08 [2]) | peak ratio (8.0 ml HMW peak to 15.5 ml dimer peak) (P0AE08 [3]) | peak ratio (8 ml HMW peak to 16.5 ml peak) (P0AE08 [4]) | stoichiometry N [5] | stoichiometry N [6]
1 | B1 | 0.02:1 | 0.9:1 | 0.2:1 | about 10:1 |  | 
2 | B2 |  |  |  |  | 10 | 2
